Test results from patent publication US20080089837A1.

Molecular target: PDGFR-alpha (platelet derived growth factor receptor-alpha) on human osteosarcoma MG-63 cells (human) (UniProt P16234)
Experiment: FACS titration on MG-63 cells, nonlinear fit of geometric mean fluorescence; goat anti-mouse detection; 95% CI ±99 pM

Sequence of PDGFR-alpha (platelet derived growth factor receptor-alpha) on human osteosarcoma MG-63 cells (human) (P16234 24-1089): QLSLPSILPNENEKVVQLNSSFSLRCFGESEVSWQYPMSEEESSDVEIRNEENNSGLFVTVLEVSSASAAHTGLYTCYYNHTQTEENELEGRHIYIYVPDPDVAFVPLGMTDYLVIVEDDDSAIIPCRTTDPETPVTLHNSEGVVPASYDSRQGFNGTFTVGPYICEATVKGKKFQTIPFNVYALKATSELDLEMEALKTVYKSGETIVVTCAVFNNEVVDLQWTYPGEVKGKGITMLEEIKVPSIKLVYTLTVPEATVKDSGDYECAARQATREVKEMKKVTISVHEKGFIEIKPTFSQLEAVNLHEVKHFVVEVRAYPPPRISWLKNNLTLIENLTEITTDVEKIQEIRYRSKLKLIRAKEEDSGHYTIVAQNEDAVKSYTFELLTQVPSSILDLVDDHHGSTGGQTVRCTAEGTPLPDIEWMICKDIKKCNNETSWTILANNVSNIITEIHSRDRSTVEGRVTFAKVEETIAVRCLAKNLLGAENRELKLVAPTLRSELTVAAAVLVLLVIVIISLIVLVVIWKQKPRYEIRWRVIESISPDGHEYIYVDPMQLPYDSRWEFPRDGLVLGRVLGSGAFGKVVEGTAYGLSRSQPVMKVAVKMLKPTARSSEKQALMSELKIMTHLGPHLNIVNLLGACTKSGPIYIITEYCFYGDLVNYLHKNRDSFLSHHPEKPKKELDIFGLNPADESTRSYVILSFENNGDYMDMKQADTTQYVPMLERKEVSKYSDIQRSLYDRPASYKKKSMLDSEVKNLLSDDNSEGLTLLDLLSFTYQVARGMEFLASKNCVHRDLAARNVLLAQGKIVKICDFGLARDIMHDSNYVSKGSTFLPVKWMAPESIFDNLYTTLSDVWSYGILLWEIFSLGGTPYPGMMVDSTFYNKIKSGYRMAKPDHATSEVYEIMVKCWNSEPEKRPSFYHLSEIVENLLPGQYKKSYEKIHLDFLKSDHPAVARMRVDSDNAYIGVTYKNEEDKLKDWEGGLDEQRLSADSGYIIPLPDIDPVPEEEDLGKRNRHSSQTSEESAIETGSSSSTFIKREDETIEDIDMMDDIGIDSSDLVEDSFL

Kd: 0.146 nM
Substance: CD140a control antibody
